Measurements as given in patent US20220324953A1 (JIANGSU HENGRUI MEDICINE, published 2022).

T1: human CTGF (antigen of the Biacore assays) (human, UniProt P29279 27-349)
T1 construct: also called antigen human CTGF; human CTGF protein
T1 sequence (looked up): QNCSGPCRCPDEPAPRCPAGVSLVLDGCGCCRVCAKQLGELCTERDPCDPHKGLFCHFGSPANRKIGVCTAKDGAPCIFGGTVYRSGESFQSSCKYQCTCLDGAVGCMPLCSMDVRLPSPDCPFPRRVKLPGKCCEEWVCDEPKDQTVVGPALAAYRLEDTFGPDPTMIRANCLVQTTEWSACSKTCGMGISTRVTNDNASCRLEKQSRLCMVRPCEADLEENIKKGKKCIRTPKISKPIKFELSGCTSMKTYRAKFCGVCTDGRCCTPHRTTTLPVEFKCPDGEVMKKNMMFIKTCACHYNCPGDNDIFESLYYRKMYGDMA


Target: T1, human CTGF (antigen of the Biacore …)
Experiment: Biacore, CTGF immobilised, antibody 150 µg/ml then 50 nM TGF-β1 (competitor TGF-β1)
Protocol: First, the antigen human CTGF was immobilized onto a CMS biosensor chip (Cat. # BR-1005-30, GE) by amino coupling, with an immobilization level of 1500 RU, and then a high concentration of CTGF antibody (150 μg/ml) was allowed to flow through the surface of the chip for 150 s; 50 nM TGF-β1 protein was injected for 120 s, and the reaction signals were detected in real time with the Biacore T200 instrument to generate a binding and dissociation curve. After the dissociation was completed in each of the experimental cycles, the biosensor chip was washed and regenerated with regeneration buffer.
The resulting experimental data were statistically analyzed with GE Biacore T200 Evaluation version 3.0 software.

Binder | Function-blocking percentage (%)
Hu147-22wk (antibody, human IgG1, kappa, V domains shown) VH: EVQLVESGGGLVQPGGSLRLSCAASGFTFNTYAMNWVRQAPGKGLEWVARIRTKSNNYATYYADSVKDRFTISRDDSKNSLYLQMNSLKTEDTAVYYCVETGFAYWDQGTLVTVSS VL: EIVLTQSPATLSLSPGERATLSCSASSSVSYMHWFQQKPGQSPKLLIYSTSNLASGIPARFSGSGSGTDYTLTISSLEPEDFAVYYCQQRSSYPLTFGQGTKLEIKR | 52.3%
Hu147-11wk (antibody, human IgG1, kappa, V domains shown) VH: EVQLVESGGGLVQPGGSLRLSCAASGFTFSTYAMNWVRQAPGKGLEWVGRIRTKSNNYATYYADSVKDRFTISRDDSKNSLYLQMNSLKTEDTAVYYCVETGFAYWDQGTLVTVSS VL: EIVLTQSPATLSLSPGERATLSCSASSSVSYMHWFQQKPGQSPRLLIYSTSNLASGIPARFSGSGSGTDYTLTISSLEPEDFAVYYCQQRSSYPLTFGQGTKLEIKR | 50.8%
Hu147-23wk (antibody, human IgG1, kappa, V domains shown) VH: EVQLVESGGGLVQPGGSLRLSCAASGFTFNTYAMNWVRQAPGKGLEWVARIRTKSNNYATYYADSVKDRFTISRDDSKNSLYLQMNSLKTEDTAVYYCVETGFAYWDQGTLVTVSS VL: EIVLTQSPATLSLSPGERATLSCSASSSVSYMHWFQQKPGQSPKLWIYSTSNLASGVPARFSGSGSGTDYTLTISSLEPEDFAVYYCQQRSSYPLTFGQGTKLEIKR | 54.6%
Hu147-32wk (antibody, human IgG1, kappa, V domains shown) VH: EVQLVESGGGLVQPGGSLRLSCAASGFSFNTYAMNWVRQAPGKGLEWVARIRTKSNNYATYYADSVKDRFTISRDDSESSLYLQMNSLKTEDTAVYYCVETGFAYWDQGTLVTVSS VL: EIVLTQSPATLSLSPGERATLSCSASSSVSYMHWFQQKPGQSPKLLIYSTSNLASGIPARFSGSGSGTDYTLTISSLEPEDFAVYYCQQRSSYPLTFGQGTKLEIKR | 55.2%
Hu147-12wk (antibody, human IgG1, kappa, V domains shown) VH: EVQLVESGGGLVQPGGSLRLSCAASGFTFSTYAMNWVRQAPGKGLEWVGRIRTKSNNYATYYADSVKDRFTISRDDSKNSLYLQMNSLKTEDTAVYYCVETGFAYWDQGTLVTVSS VL: EIVLTQSPATLSLSPGERATLSCSASSSVSYMHWFQQKPGQSPKLLIYSTSNLASGIPARFSGSGSGTDYTLTISSLEPEDFAVYYCQQRSSYPLTFGQGTKLEIKR | 51.6%
Hu147-14wk (antibody, human IgG1, kappa, V domains shown) VH: EVQLVESGGGLVQPGGSLRLSCAASGFTFSTYAMNWVRQAPGKGLEWVGRIRTKSNNYATYYADSVKDRFTISRDDSKNSLYLQMNSLKTEDTAVYYCVETGFAYWDQGTLVTVSS VL: DIQMTQSPSSLSASVGDRVTITCSASSSVSYMHWFQQKPGKSPKLLIYSTSNLASGVPSRFSGSGSGTDYTLTISSLQPEDFATYYCQQRSSYPLTFGQGTKLEIKR | 50.9%
Hu147-15wk (antibody, human IgG1, kappa, V domains shown) VH: EVQLVESGGGLVQPGGSLRLSCAASGFTFSTYAMNWVRQAPGKGLEWVGRIRTKSNNYATYYADSVKDRFTISRDDSKNSLYLQMNSLKTEDTAVYYCVETGFAYWDQGTLVTVSS VL: DIQLTQSPSSLSASVGDRVTITCSASSSVSYMHWFQQKPGKSPKLWIYSTSNLASGVPSRFSGSGSGTDYTLTISSLQPEDFATYYCQQRSSYPLTFGQGTKLEIKR | 52.3%
Hu164-67wl (antibody, human IgG1, lambda) heavy: not shown light: ETVVTQEPSLTVSPGGTVTLTCRSSIGAVTTSNYANWVQQKPGQAFRGLIGGTSNRAPWTPARFSGSLLGGKAALTLSGVQPEDEAEYYCALWYSTHYVFGGGTKLTVLGQPKANPTVTLFPPSSEELQANKATLVCLISDFYPGAVTVAWKADGSPVKAGVETTKPSKQSNNKYAASSYLSLTPEQWKSHRSYSCQVTHEGSTVEKTVAPTEC | 55.5%

Now from value to binder:

Function-blocking percentage (%) | Binder
53.3% | Hu147-13wk (antibody, human IgG1, kappa, V domains shown) VH: EVQLVESGGGLVQPGGSLRLSCAASGFTFSTYAMNWVRQAPGKGLEWVGRIRTKSNNYATYYADSVKDRFTISRDDSKNSLYLQMNSLKTEDTAVYYCVETGFAYWDQGTLVTVSS VL: EIVLTQSPATLSLSPGERATLSCSASSSVSYMHWFQQKPGQSPKLWIYSTSNLASGVPARFSGSGSGTDYTLTISSLEPEDFAVYYCQQRSSYPLTFGQGTKLEIKR
51.6% | Hu147-21wk (antibody, human IgG1, kappa, V domains shown) VH: EVQLVESGGGLVQPGGSLRLSCAASGFTFNTYAMNWVRQAPGKGLEWVARIRTKSNNYATYYADSVKDRFTISRDDSKNSLYLQMNSLKTEDTAVYYCVETGFAYWDQGTLVTVSS VL: EIVLTQSPATLSLSPGERATLSCSASSSVSYMHWFQQKPGQSPRLLIYSTSNLASGIPARFSGSGSGTDYTLTISSLEPEDFAVYYCQQRSSYPLTFGQGTKLEIKR
55% | Hu147-31wk (antibody, human IgG1, kappa, V domains shown) VH: EVQLVESGGGLVQPGGSLRLSCAASGFSFNTYAMNWVRQAPGKGLEWVARIRTKSNNYATYYADSVKDRFTISRDDSESSLYLQMNSLKTEDTAVYYCVETGFAYWDQGTLVTVSS VL: EIVLTQSPATLSLSPGERATLSCSASSSVSYMHWFQQKPGQSPRLLIYSTSNLASGIPARFSGSGSGTDYTLTISSLEPEDFAVYYCQQRSSYPLTFGQGTKLEIKR
57.3% | Hu147-33wk (antibody, human IgG1, kappa, V domains shown) VH: EVQLVESGGGLVQPGGSLRLSCAASGFSFNTYAMNWVRQAPGKGLEWVARIRTKSNNYATYYADSVKDRFTISRDDSESSLYLQMNSLKTEDTAVYYCVETGFAYWDQGTLVTVSS VL: EIVLTQSPATLSLSPGERATLSCSASSSVSYMHWFQQKPGQSPKLWIYSTSNLASGVPARFSGSGSGTDYTLTISSLEPEDFAVYYCQQRSSYPLTFGQGTKLEIKR
41.3% | positive control CTGF antibody mAb1 (antibody, V domains shown, Positive control, from CN1829740B; also called pamrevlumab; FG-3019) VH: EGQLVQSGGGLVHPGGSLRLSCAGSGFTFSSYGMHWVRQAPGKGLEWVSGIGTGGGTYSTDSVKGRFTISRDNAKNSLYLQMNSLRAEDMAVYYCARGDYYGSGSFFDCWGQGTLVTVSS VL: DIQMTQSPSSLSASVGDRVTITCRASQGISSWLAWYQQKPEKAPKSLIYAASSLQSGVPSRFSGSGSGTDFTLTISSLQPEDFATYYCQQYNSYPPTFGQGTKLEIKR
52.8% | Hu147-24wk (antibody, human IgG1, kappa, V domains shown) VH: EVQLVESGGGLVQPGGSLRLSCAASGFTFNTYAMNWVRQAPGKGLEWVARIRTKSNNYATYYADSVKDRFTISRDDSKNSLYLQMNSLKTEDTAVYYCVETGFAYWDQGTLVTVSS VL: DIQMTQSPSSLSASVGDRVTITCSASSSVSYMHWFQQKPGKSPKLLIYSTSNLASGVPSRFSGSGSGTDYTLTISSLQPEDFATYYCQQRSSYPLTFGQGTKLEIKR
56.2% | Hu147-34wk (antibody, human IgG1, kappa, V domains shown) VH: EVQLVESGGGLVQPGGSLRLSCAASGFSFNTYAMNWVRQAPGKGLEWVARIRTKSNNYATYYADSVKDRFTISRDDSESSLYLQMNSLKTEDTAVYYCVETGFAYWDQGTLVTVSS VL: DIQMTQSPSSLSASVGDRVTITCSASSSVSYMHWFQQKPGKSPKLLIYSTSNLASGVPSRFSGSGSGTDYTLTISSLQPEDFATYYCQQRSSYPLTFGQGTKLEIKR
